Results from patent publication US20230303695A1 (SHANGHAI XBH BIOTECHNOLOGY, published 2023).
Values belong to the binder of their own block, whether it stands above or below them.

How the values were obtained:
[1] = molecular target: T1, recombinant human IGSF8 extracellular domain tagged by a human Fc region (IGSF8-hFc) (human, UniProt Q969P0 28-579, biotin label in Examples 17, 18 and 28 (site not given)); assay: FACS, biotin-labelled IGSF8 on CT26 cells expressing KIR3DL1/2 constructs, MFI normalized to Thy1.1
T1 construct: also called IGSF8-Fc fusion protein; IGSF8-hFc-biotin; not shown: human Fc region
T1 sequence: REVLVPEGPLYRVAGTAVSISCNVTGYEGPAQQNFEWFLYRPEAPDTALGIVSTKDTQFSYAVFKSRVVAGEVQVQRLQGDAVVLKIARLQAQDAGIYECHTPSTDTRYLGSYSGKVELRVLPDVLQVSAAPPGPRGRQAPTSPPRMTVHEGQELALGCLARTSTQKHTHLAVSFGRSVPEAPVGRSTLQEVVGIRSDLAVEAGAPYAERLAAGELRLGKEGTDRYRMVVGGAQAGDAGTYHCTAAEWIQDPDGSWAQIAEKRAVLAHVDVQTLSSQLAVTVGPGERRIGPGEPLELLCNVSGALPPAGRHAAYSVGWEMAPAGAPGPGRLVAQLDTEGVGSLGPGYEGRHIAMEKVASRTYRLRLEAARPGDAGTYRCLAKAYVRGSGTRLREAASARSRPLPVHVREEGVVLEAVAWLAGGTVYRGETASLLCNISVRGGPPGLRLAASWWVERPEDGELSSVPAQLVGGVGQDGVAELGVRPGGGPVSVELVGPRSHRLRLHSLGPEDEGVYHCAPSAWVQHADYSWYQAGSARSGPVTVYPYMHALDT

[2] = molecular target: T2, D1 domain of IGSF8 (recombinant protein) (human, UniProt Q969P0 28-149, limits assumed); assay: SPR, Biacore T100
T2 construct: domain: D1 (Ig V-set domain); also called Ig V-set domain of IGSF8
T2 sequence (looked up): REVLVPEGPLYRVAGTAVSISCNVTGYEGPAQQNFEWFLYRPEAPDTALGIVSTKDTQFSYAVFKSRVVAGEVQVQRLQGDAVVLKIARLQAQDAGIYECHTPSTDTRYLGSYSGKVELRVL

[3] = molecular target: T3, IGSF8 protein without D1 domain (human, UniProt Q969P0 150-579, limits assumed); assay: FACS, single antibody dose, IGSF8-D24 (D2-D4 with TM, no D1) expressed on CT26 cells
T3 construct: domain: D2-4; also called D24; D2-4
T3 sequence (looked up): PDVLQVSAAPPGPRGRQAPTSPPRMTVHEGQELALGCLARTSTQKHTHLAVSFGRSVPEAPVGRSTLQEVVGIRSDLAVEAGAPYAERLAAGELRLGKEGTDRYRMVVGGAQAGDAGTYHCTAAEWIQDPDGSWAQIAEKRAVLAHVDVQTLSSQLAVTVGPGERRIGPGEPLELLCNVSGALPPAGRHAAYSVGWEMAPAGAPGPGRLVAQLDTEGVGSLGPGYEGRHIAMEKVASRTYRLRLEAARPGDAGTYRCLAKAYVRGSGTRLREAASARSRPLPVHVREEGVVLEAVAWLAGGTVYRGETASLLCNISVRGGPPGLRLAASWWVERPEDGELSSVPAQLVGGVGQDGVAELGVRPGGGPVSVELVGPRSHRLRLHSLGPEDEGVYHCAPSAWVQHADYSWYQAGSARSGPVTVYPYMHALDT

[4] = molecular target: T4, full-length IGSF8 (recombinant antigen of the SPR screen; IGSF8 target antigen of the phage panning) (human, UniProt Q969P0 28-579, limits assumed); assay: SPR, Biacore T100
T4 sequence (looked up): T1 sequence

[5] = molecular target: T5, human IGSF8 expressed on the cell surface (human, UniProt Q969P0 28-613); assay: FACS on CT26 cells with forced surface expression of human IGSF8
T5 construct: whole, on cells; also called human IGSF8 on CT26 cells; IGSF8 on MC38 cells
T5 sequence (looked up): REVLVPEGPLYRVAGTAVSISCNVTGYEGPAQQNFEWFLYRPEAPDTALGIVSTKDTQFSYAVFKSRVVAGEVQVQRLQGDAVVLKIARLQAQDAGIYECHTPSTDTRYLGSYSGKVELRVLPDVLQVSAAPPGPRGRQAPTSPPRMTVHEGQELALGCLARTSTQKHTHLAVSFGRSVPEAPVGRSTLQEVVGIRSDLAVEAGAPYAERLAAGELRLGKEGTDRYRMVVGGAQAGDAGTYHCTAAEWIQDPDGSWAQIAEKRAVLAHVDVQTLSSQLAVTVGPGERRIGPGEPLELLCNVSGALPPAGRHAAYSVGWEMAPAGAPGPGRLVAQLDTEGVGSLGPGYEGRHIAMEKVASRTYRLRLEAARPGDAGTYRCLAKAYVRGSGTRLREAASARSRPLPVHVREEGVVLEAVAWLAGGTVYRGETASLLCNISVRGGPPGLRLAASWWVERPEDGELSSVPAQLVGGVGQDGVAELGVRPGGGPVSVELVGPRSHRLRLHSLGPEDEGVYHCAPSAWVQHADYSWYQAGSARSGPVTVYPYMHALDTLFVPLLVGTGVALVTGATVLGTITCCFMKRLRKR
Experimental: For antibody binding assays based on cell-expressed antigens, 100,000 cells overexpressing the antigen (either the full-length IGSF8 or the D1 domain thereof) were washed with PBS buffer containing 2% FBS, and then incubated with 100 μL of antibodies or IgG of different concentrations for 30 minutes on ice. Cells were then washed twice with wash buffer, and incubated with 100 μL of 1:100 anti-human Fc-PE antibody for 15 minutes on ice. Cells were washed twice with wash buffer and analyzed on a FACS analyzer (CytoFlex, Beckman).

[6] = molecular target: T6, mouse IGSF8 expressed on CT26 cells (mouse, UniProt Q8R366 26-611); assay: FACS on CT26 cells
T6 construct: whole, on cells
T6 sequence (looked up): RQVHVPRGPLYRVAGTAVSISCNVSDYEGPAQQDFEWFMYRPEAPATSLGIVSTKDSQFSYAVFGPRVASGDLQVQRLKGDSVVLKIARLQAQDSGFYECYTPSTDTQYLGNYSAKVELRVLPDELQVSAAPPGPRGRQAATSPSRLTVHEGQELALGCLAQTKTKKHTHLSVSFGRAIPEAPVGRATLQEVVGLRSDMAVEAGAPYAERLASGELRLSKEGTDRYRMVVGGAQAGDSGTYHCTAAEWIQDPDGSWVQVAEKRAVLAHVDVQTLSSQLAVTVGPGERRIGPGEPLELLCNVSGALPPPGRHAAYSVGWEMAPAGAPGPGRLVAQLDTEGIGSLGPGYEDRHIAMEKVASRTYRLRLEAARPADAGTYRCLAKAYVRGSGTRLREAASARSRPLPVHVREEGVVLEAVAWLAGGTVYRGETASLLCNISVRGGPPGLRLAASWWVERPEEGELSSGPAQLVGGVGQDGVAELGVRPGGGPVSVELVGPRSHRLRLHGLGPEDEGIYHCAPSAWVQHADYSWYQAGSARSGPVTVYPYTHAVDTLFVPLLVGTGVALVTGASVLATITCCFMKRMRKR

[7] = molecular target: T1, recombinant human IGSF8 extracellular …; assay: FACS, biotin-labelled IGSF8-hFc on CT26 cells expressing the KIR, MFI normalized to Thy1.1
Experimental: For this experiment, different human KIR receptors (KIR2DL1, KIR2DL2, KIR2DL3, KIR2DL4, KIR2DL5A, KIR2DL5B, KIR3DL1, KIR3DL2, KIR3DL3) were first cloned into a proprietary lentiviral vector containing a thy1.1 tag (FIG. 17A). Then mouse CT26 cells, were transducted by these lentiviral constructs, and IGSF8 binding was tested with biotin-labelled recombinant IGSF8 hFc fusion protein. The mean fluorescence intensity (MFI) of IGSF8 binding to different CT26 cells were normalized by the expression of different KIRs on CT26 cells using an anti-thy1.1 mAb (Biolegend) via flow cytometry.
KLRC1 also contains a ITIM motif in its intracellular domain, and was known to be a inhibitory receptor of NK or CD8⁺ T cells as part of a heterodimer with KLRD1 on the cell surface. […] Specifically, 100,000 CT26 cells overexpressing the antigens (KIRs or KLRs) were washed with PBS buffer containing 2% FBS, and incubated with 100 μL IGSF8 recombinant proteins or antibodies (5 μg/mL) for 30 minutes on ice. Cells were then washed twice with wash buffer, and incubated with 100 μL of 1:100 anti-human Fc-PE antibody for 15 minutes on ice. Cells were washed twice with wash buffer and analyzed on a FACS analyzer (CytoFlex, Beckman). In these experiments, the mean fluorescence intensity (MFI) of IGSF8 binding to different CT26 cells were normalized by the expression of different KLRs on CT26 cells using an anti-thy1.1 mAb via flow cytometry.

B1: KIR3DL2 D3 construct on CT26 cells (receptor, human, UniProt P43630 222-340, looked up)
chain: EKPSLSAQPGPTVQAGENVTLSCSSWSSYDIYHLSREGEAHERRLRAVPKVNRTFQADFPLGPATHGGTYRCFGSFRALPCVWSNSSDPLLVSVTGNPSSSWPSPTEPSSKSGICRHLH
notes: domain: D3; also called D1/D3 construct
binding result [1]: no binding (tested: not shown on the sheet)

B2: Antibody C33 (1C2) (antibody, V domains shown)
VH: QVQLVESGGGVVQPGRSLRLSCAASGFTFSTYGMHWVRQAPGKGLEWVAVIWDDGSYKYYGDSVKGRFTISRDNSKNTLYLQMNSLRAEDTAVYYCARDGSGWGYAFDIWGQGTMVTVSS
VL: DIQLTQSPSSLSASVGDRVTITCQASQDISEYLNWYQHKPGKAPNPLVFDAANLETGVPPRFSATGSGTDFSLTITSLQPEDFATYYCQQYDSFPYTFGQGTRLDIK
notes: also called mAb-1C2 (C33)
Kd [2]: < 50 nM
binding result [3]: no binding (tested: not shown on the sheet)
Kd [4]: 33.2 nM
EC50 [5]: 6.2 nM

B3: KIR3DL2 D1 construct on CT26 cells (receptor, human, UniProt P43630 22-118, looked up)
chain: LMGGQDKPFLSARPSTVVPRGGHVALQCHYRRGFNNFMLYKEDRSHVPIFHGRIFQESFIMGPVTPAHAGTYRCRGSRPHSLTGWSAPSNPLVIMVT
notes: domain: D1; also called D1/D3 construct
binding result [1]: no binding (tested: not shown on the sheet)

B4: KIR3DL1 D3 construct on CT26 cells (receptor, human, UniProt P43629 222-340, looked up)
chain: EKPSLSAQPGPKVQAGESVTLSCSSRSSYDMYHLSREGGAHERRLPAVRKVNRTFQADFPLGPATHGGTYRCFGSFRHSPYEWSDPSDPLLVSVTGNPSSSWPSPTEPSSKSGNPRHLH
notes: as for B1
binding result [1]: no binding (tested: not shown on the sheet)

B8: KIR3DL1 D1 construct on CT26 cells (receptor, human, UniProt P43629 22-118, looked up)
chain: HMGGQDKPFLSAWPSAVVPRGGHVTLRCHYRHRFNNFMLYKEDRIHIPIFHGRIFQESFNMSPVTTAHAGNYTCRGSHPHSPTGWSAPSNPVVIMVT
notes: as for B3
binding result [1]: no binding (tested: not shown on the sheet)

The next lines start with results.

Kd [2]: < 50 nM
Kd [4]: 4.57 nM
binding result [6]: binds
EC50 [5]: 2.02 nM
B5: Antibody C36 (1B4) (antibody, V domains shown)
VH: EVQLLESGGGLVQPGGSLRLSCAASGFTFSSYAMSWVRQAPGKGLEWVSGITGSGGSTYYADSVKGRFTISRDNSKNTLYLQMNSLRAEDTAIYYCARGGALDIWGQGTMVTVSS
VL: DIQMTQSPSSLSASVGDRVTITCRASQVIHNYLAWYKQKPGQAPKLLIYSASSLQSGVPSRFSGSGSGTDFTLTISSLQPEDFATYYCQQSYSTPLTFGGGTKVEIKR
notes: also called mAb-1B4 (C36)

Kd [2]: < 50 nM
Kd [4]: 3.83 nM
EC50 [5]: 4.64 nM
B6: Antibody C38 (2B4) (antibody, V domains shown)
VH: EVQLVESGGGLEQPGGSLRLSCAGSGFTFRDYAMTWVRQAPGKGLEWVSSISGSGGNTYYADSVKGRFTISRDNSKNTLYLQMNSLRAEDTAIYYCARGEYSSGWPSWFDPWGQGTLVTVSS
VL: EIVLTQSPSSLSASVGDRVTISCRASRTVGTFLNWYQQRPGKPPQALILGVSILEGGVSSRFSGAGSGTEFSLTISSLQPEDIGTYYCQQSHDVPRTFGQGTKVDLRR
notes: also called mAb-2B4 (C38)
binding result [3]: no binding (tested: not shown on the sheet)

binding result [7]: no binding
B7: KIR2DL5B expressed on CT26 cells (receptor, human, UniProt Q8NHK3 22-375, looked up)
chain: HEGGQDKPLLSAWPSAVVPRGGHVTLLCRSRLGFTIFSLYKEDGVPVPELYNKIFWKSILMGPVTPAHAGTYRCRGSHPRSPIEWSAPSNPLVIVVTGLFGKPSLSAQPGPTVRTGENVTLSCSSRSSFDMYHLSREGRAHEPRLPAVPSVDGTFQADFPLGPATHGGTYTCFSSLHDSPYEWSDPSDPLLVSVTGNSSSSSSSPTEPSSKTGIRRHLHILIGTSVAIILFIILFFFLLHCCCSNKKNAAVMDQEPAGDRTVNREDSDDQDPQEVTYAQLDHCVFTQTKITSPSQRPKTPPTDTTMYMELPNAKPRSLSPAHKHHSQALRGSSRETTALSQNRVASSHVPAAGI
notes: whole, on cells
